B1: T87 vrt1 (ssRNA)
RNA: ACGAACUGCCCUCUUUCAUGACGCACAGACGU
modifications: 2'-F C2,U7,C9,C10,C11,U12,C22,C24,C30,U32; ribo A1,G3,G8,A21,G23,A25,G31; rest 2'-OMe; 3' idT
B2: T20 (ssRNA)
RNA: GGGAGGUGGACGAACUGCCCUCUACUUUCAUGUUGACGCACAGACGACUCGCUG
modifications: 2'-F C and U; 2'-OH A and G
B3: T19 (ssRNA)
RNA: GGGAGGUGGACGAACUGCCCUCUUUCAUGUUGCUGACGCACAGACGACUCGCUG
modifications: 2'-F C and U; 2'-OH A and G
B4: T13 (ssRNA)
RNA: GGGAGGUGCCCUCAGCUACUUUCAUGUUGCUGACGCACAGACGACUCGCUG
modifications: 2'-F C and U; 2'-OH A and G
B5: T82 vrt1 (ssRNA)
RNA: ACGAACUGCCCUCGAUCGACGCACAGACGUACCCG
modifications: 2'-F C2,U7,C9,C10,C11,U12,C20,C22,C28,U30; ribo A1,G3,G8,A19,G21,A23,G29; rest 2'-OMe; 3' idT

target: T1, von Willebrand factor (VWF) (Homo sapiens, UniProt P04275 P04275:764-2813); assay: filter; Bmax 85%; 2 mM CaCl2, 37 C; conditions: tags: factor VIII free human purified VWF, Haematologic Technologies Inc; label: 5'-32P
Method: (§1) Affinity constants (Kd values) were determined using double-filter nitrocellulose filter binding assays (Rusconi et al, Thromb. Haemost. $4:841-848 (2000)). All binding studies were performed in binding buffer F (20 mM HEPES, pH 7.4, 150 mM NaCl, 2 mM CaCl₂, and 0.01% BSA) at 37° C. Human purified VWF (factor VIII free) was purchased from Haematologic Technologies Inc. (Essex Junction, Vt.) and used in the double-filter nitrocellulose filter binding assay to determine the Kd of the aptamers. Briefly, RNA were end-labeled at the 5′ end with T4 polynucleotide kinase (New England Biolabs, Beverly, Mass.) and [γ³²P] ATP (Amersham Pharmacia Biotech, Piscataway, N.J.) (Fitzwater and Polisky, Methods Enzymol. 267:275-301 (1996)). End-labeled RNA was diluted in binding buffer F, heat denatured at 65° C. for 5 minutes, and subsequently equilibrated at 37° C. Direct binding was performed by incubating trace ³²P-RNA with varying concentrations of VWF protein in binding buffer F at 37° C. for 5 min. The fraction of the nucleic acid-protein complex which bound to the nitrocellulose membrane was quantified with a phosphorimager (Molecular Dynamics, Sunnyvale, Calif.). Non-specific binding of the radiolabeled nucleic acid was subtracted out of the binding such that only specific binding remained (Wong and Lohman, Proc. Natl. Acad. Sci. USA 90:5428-5432 (1993)).

| Binder | Kd [nM] |
| --- | --- |
| ACGAACUGCCCUCGUAUUAUUUCGACGCACAGACGU (ssRNA, 2'-F C9,C10,C11,C26,C28; ribo G27; rest 2'-OMe; 3' idT) [T89 vrt4] | 8.4 |
| ACGAACUGCCCUCGUUUCAUCGACGCACAGACGU (ssRNA, 2'-F C9,C10,C11,C24,G25,C26,U34; rest 2'-OMe; 3' idT) [T86 vrt6] | 52 |
| ACGAACUGCCCUCGAUCGACGCACAGACGU (ssRNA, 2'-F U7,C9,C10,C11,U12,C20,C22,U30; ribo A23; rest 2'-OMe; 3' idT) [T59 vrt21] | 27 |
| ACGAACUGCCCUCUAUUAUUUGACGCACAGACGU (ssRNA, 2'-F C9,C10,C11,C24,C26; ribo G25; rest 2'-OMe; 3' idT) [T90 vrt4] | 10.2 |
| B1 | 1.5 |

same assay, conditions: tags: factor VIII free, Haematologic Technologies Inc; label: 5'-32P

| Binder | Kd [nM] |
| --- | --- |
| ACGAACUGCCCUCGAUCGACGCACAGACGU (ssRNA, rAfCrGmAmAmCfUrGfCfCfCfUmCmGmAmUmCmGrAfCrGfCmAmCmAmGmAfCrGfU-idT) [T59 vrt12] | 6.9 |

target: T1, von Willebrand factor (VWF); assay: filter; Bmax 61%; 2 mM CaCl2, 37 C; conditions: tags: factor VIII free, Haematologic Technologies Inc; label: 5'-32P
Method: as §1

| Binder | Kd [nM] |
| --- | --- |
| ACGAACUGCCCUCGAUCGACGCACAGACGUAAAAA (ssRNA, 2'-F C and U; 2'-OH A and G; 3' idT) [T83] | 3.5 |
| ACGAACUGCCCUCGAUCGACGCACAGACGUUUUUU (ssRNA, mAmCmGmAmAmCmUmGfCfCfCmUmCmGmAmUmCmGmAfCfGfCmAmCmAmGmAmCmGfUmUmUmUmUmU-idT) [T79 vrt6] | 60.5 |
| ACGAACUGCCCUCGCUACUUUCAUGUUGCGACGCACAGACGU (ssRNA, 2'-F C and U; 2'-OH A and G; 3' idT) [T34] | 10 |
| ACGAACUGCCCUCGCACUUAUGUGCGACGCACAGACGU (ssRNA, 2'-F C and U; 2'-OH A and G; 3' idT) [T50] | 9.6 |
| ACGAACUGCCCUCGAUCGACGCACAGACGU (ssRNA, mAmCmGmAmAmCfUmGfCfCfCmUmCmGmAmUmCmGmAfCmGfCmAmCmAmGmAmCmGfU-idT) [T59 vrt5] | 260 |

target: T1, von Willebrand factor (VWF); assay: filter; NB; 2 mM CaCl2, 37 C; conditions: tags: factor VIII free human purified VWF, Haematologic Technologies Inc; label: 5'-32P
Method: as §1

| Binder | binding result |
| --- | --- |
| ACGAAAUGGAAUCGUAAGAACCACAGACGUUUUUU (ssRNA, all 2'-OMe; 3' idT) [DTRI-022] | no binding |

same assay, conditions: tags: factor VIII free, Haematologic Technologies Inc; label: 5'-32P

| Binder | binding result |
| --- | --- |
| B2 | no binding |
| ACGAACUGCUCGAUUAUUCGAGCACAGACGU (ssRNA, 2'-F C and U; 2'-OH A and G; 3' idT) [T66] | no binding |
| ACGAACUGCCCUUUAUACGCACAGACGU (ssRNA, 2'-F C and U; 2'-OH A and G; 3' idT) [T65] | no binding |
| ACGACUGCCCUCAGCUACUUUCAUGUUGCUGACGCACACGU (ssRNA, 2'-F C and U; 2'-OH A and G; 3' idT) [T55] | no binding |
| ACGAACUGCCCCGCACAGACGU (ssRNA, 2'-F C and U; 2'-OH A and G; 3' idT) [T61] | no binding |
| ACGAACUGCCCUCGAUUAUUCGACCACAGACGU (ssRNA, 2'-F C and U; 2'-OH A and G; 3' idT) [T67] | no binding |
| ACGAACUGCCCUCGCGACGCACAGACGU (ssRNA, 2'-F C and U; 2'-OH A and G; 3' idT) [T58] | no binding |
| GGGAGGUGGACGAACUGCCCUACGCACAGACGACUCGCUG (ssRNA, 2'-F C and U; 2'-OH A and G) [T17] | no binding |
| GGGAGGUCAGCUACUUUCAUGUUGCUGA (ssRNA, 2'-F C and U; 2'-OH A and G) [T14] | no binding |
| ACGAACUGCCCUACGCACAGACGU (ssRNA, 2'-F C and U; 2'-OH A and G; 3' idT) [T56] | no binding |
| B3 | no binding |
| ACGAACUCCCUCGAUUAUUCGACGACAGACGU (ssRNA, 2'-F C and U; 2'-OH A and G; 3' idT) [T62] | no binding |
| B4 | no binding |
| ACGAACUGCCCUCAGCUACUUUCAUGUUGCUGACGCACAACGU (ssRNA, 2'-F C and U; 2'-OH A and G; 3' idT) [T53] | no binding |
| ACGAACUGCCCUCAGCUACUUUCAUGUUGCUGACGCACGACGU (ssRNA, 2'-F C and U; 2'-OH A and G; 3' idT) [T54] | no binding |

target: T1, von Willebrand factor (VWF); assay: filter; NB; loop CAGA mutated; 2 mM CaCl2, 37 C; conditions: tags: factor VIII free, Haematologic Technologies Inc; label: 5'-32P
Method: as §1

| Binder | binding result |
| --- | --- |
| ACGAACUGCCCUCUUUUUUUUGACGCACCCCCGU (ssRNA, 2'-F C and U; 2'-OH A and G; 3' idT) [T96] | no binding |
| ACGAACUGCCCUCUAUUAUUUGACGCACCCCCGU (ssRNA, 2'-F C and U; 2'-OH A and G; 3' idT) [T99] | no binding |
| ACGAACUGCCCUCGUUUCAUCGACGCACCCCCGU (ssRNA, 2'-F C and U; 2'-OH A and G; 3' idT) [T97] | no binding |
| ACGAACUGCCCUCUUUCAUGACGCACCCCCGU (ssRNA, 2'-F C and U; 2'-OH A and G; 3' idT) [T98] | no binding |
| ACGAACUGCCCUCUUUUUUGACGCACCCCCGU (ssRNA, 2'-F C and U; 2'-OH A and G; 3' idT) [T101] | no binding |

target: T1, von Willebrand factor (VWF); assay: filter; Bmax 76%; 2 mM CaCl2, 37 C; conditions: tags: factor VIII free human purified VWF, Haematologic Technologies Inc; label: 5'-32P
Method: as §1

| Binder | Kd [nM] |
| --- | --- |
| ACGAACUGCCCUCGAUCGACGCACAGACGU (ssRNA, 2'-F C10,C11,C20,C22,U30; ribo G21; rest 2'-OMe; 3' idT) [T59 vrt29] | 19 |
| B5 | 3.8 |
| ACGAACUGCCCUCUAUUUCAUUUGACGCACAGACGU (ssRNA, 2'-F C9,C10,C11,C26,G27,C28; rest 2'-OMe; 3' idT) [T93 vrt7] | 20 |

same assay, conditions: tags: factor VIII free, Haematologic Technologies Inc; label: 5'-32P

| Binder | Kd [nM] |
| --- | --- |
| ACGAACUGCCCUCGAUCGACGCACAGACGU (ssRNA, rAfCrGmAmAmCfUrGfCfCfCfUmCmGmAmUmCmGrAfCmGfCrAmCmAmGmAfCrGfU-idT) [T59 vrt13] | 29 |
| ACGAACUGCCCUCGAUCGACGCACAGACGUACCCG (ssRNA, 2'-F C and U; 2'-OH A and G; 3' idT) [T82] | 5.3 |
| ACGAACUGCCCUCGAUCGACGCACAGACGUACACG (ssRNA, 2'-F C and U; 2'-OH A and G; 3' idT) [T84] | 3.7 |
| ACGAACUGCCCUCGAUCGACGCACAGACGU (ssRNA, rAfCrGmAmAmCfUrGfCfCfCfUmCmGmAmUmCmGrAfCrGfCrAmCmAmGmAfCrGfU-idT) [T59 vrt1] | 1.5 |
| ACGAACUGCCCUCUAUUUCAUUUGACGCACAGACGU (ssRNA, 2'-F C and U; 2'-OH A and G; 3' idT) [T93] | 6.4 |

target: T1, von Willebrand factor (VWF); assay: filter; Bmax 77%; 2 mM CaCl2, 37 C; conditions: tags: factor VIII free human purified VWF, Haematologic Technologies Inc; label: 5'-32P
Method: as §1

| Binder | Kd [nM] |
| --- | --- |
| ACGAACUGCCCUCGAUCGACGCACAGACGUACACG (ssRNA, 2'-F C9,C10,C11,C20,C22; ribo G21; rest 2'-OMe; 3' idT) [T84 vrt4] | 22 |
| ACGAACUGCCCUCGAUCGACGCACAGACGUAAAAA (ssRNA, 2'-F C9,C10,C11,C20,C22; ribo G21; rest 2'-OMe; 3' idT) [T83 vrt4] | 20 |
| ACGAACUGCCCUCGAUCGACGCACAGACGU (ssRNA, 2'-F U7,C9,C10,C11,U12,C20,C22,U30; ribo G21; rest 2'-OMe; 3' idT) [T59 vrt23] | 1.7 |

same assay, conditions: tags: factor VIII free, Haematologic Technologies Inc; label: 5'-32P

| Binder | Kd [nM] |
| --- | --- |
| ACGAACUGCCCUCUAUUAUUUGACGCACAGACGU (ssRNA, 2'-F C and U; 2'-OH A and G; 3' idT) [T90] | 3.8 |
| ACGAACUGCCCUCGAUCGACGCACAGACGUAAA (ssRNA, 2'-F C and U; 2'-OH A and G; 3' idT) [T80] | 6.3 |
| ACGAACUGCCCUCGUUAUCGACGCACAGACGU (ssRNA, 2'-F C and U; 2'-OH A and G; 3' idT) [T71] | 10 |
